B1: tuberous sclerosis complex 2 (TSC2), human, subunit of the purified TSC complex (natural protein)
chain: not shown
notes: TSC2 (tuberin), human; ORF sub-cloned into a modified pCAG vector; residues 127-936, 1015-1082, 1182-1245, 1494-1732 traced; Two copies (TSC2a, TSC2b) stand in the TSC complex (2:2:1); The sample for cryo-EM was cross-linked with glutaraldehyde (Grafix); also called TSC2a; TSC2b
B3: tuberous sclerosis complex 1 (TSC1), human, subunit of the purified TSC complex (natural protein, UniProt Q92574 1-1164, looked up)
chain: MAQQANVGELLAMLDSPMLGVRDDVTAVFKENLNSDRGPMLVNTLVDYYLETSSQPALHILTTLQEPHDKHLLDRINEYVGKAATRLSILSLLGHVIRLQPSWKHKLSQAPLLPSLLKCLKMDTDVVVLTTGVLVLITMLPMIPQSGKQHLLDFFDIFGRLSSWCLKKPGHVAEVYLVHLHASVYALFHRLYGMYPCNFVSFLRSHYSMKENLETFEEVVKPMMEHVRIHPELVTGSKDHELDPRRWKRLETHDVVIECAKISLDPTEASYEDGYSVSHQISARFPHRSADVTTSPYADTQNSYGCATSTPYSTSRLMLLNMPGQLPQTLSSPSTRLITEPPQATLWSPSMVCGMTTPPTSPGNVPPDLSHPYSKVFGTTAGGKGTPLGTPATSPPPAPLCHSDDYVHISLPQATVTPPRKEERMDSARPCLHRQHHLLNDRGSEEPPGSKGSVTLSDLPGFLGDLASEEDSIEKDKEEAAISRELSEITTAEAEPVVPRGGFDSPFYRDSLPGSQRKTHSAASSSQGASVNPEPLHSSLDKLGPDTPKQAFTPIDLPCGSADESPAGDRECQTSLETSIFTPSPCKIPPPTRVGFGSGQPPPYDHLFEVALPKTAHHFVIRKTEELLKKAKGNTEEDGVPSTSPMEVLDRLIQQGADAHSKELNKLPLPSKSVDWTHFGGSPPSDEIRTLRDQLLLLHNQLLYERFKRQQHALRNRRLLRKVIKAAALEEHNAAMKDQLKLQEKDIQMWKVSLQKEQARYNQLQEQRDTMVTKLHSQIRQLQHDREEFYNQSQELQTKLEDCRNMIAELRIELKKANNKVCHTELLLSQVSQKLSNSESVQQQMEFLNRQLLVLGEVNELYLEQLQNKHSDTTKEVEMMKAAYRKELEKNRSHVLQQTQRLDTSQKRILELESHLAKKDHLLLEQKKYLEDVKLQARGQLQAAESRYEAQKRITQVFELEILDLYGRLEKDGLLKKLEEEKAEAAEAAEERLDCCNDGCSDSMVGHNEEASGHNGETKTPRPSSARGSSGSRGGGGSSSSSSELSTPEKPPHQRAGPFSSRWETTMGEASASIPTTVGSLPSSKSFLGMKARELFRNKSESQCDEDGMTSSLSESLKTELGKDLGVEAKIPLNLDGPHPSPPTPDSVGQLHIMDYNETHHEHS
notes: TSC1 (hamartin), human; ORF sub-cloned into a modified pCAG vector; Two copies (TSC1a, TSC1b) stand in the TSC complex (2:2:1); The sample for cryo-EM was cross-linked with glutaraldehyde (Grafix); also called TSC1a; TSC1b

How the values were obtained:
Assay in all cases: cryo-EM structure; human TSC complex (TSC1, TSC2, TBC1D7) co-expressed in Expi293F, purified, cross-linked by Grafix (glutaraldehyde); single particle reconstruction, 4.4 Å overall, core 3.6 Å, wings 3.9 and 4.1 Å
[1] = molecular target: the molecule itself
[2] = molecular target: B3; settings: both partners purified
[3] = molecular target: B1; settings: both partners purified

Binder: B1
stoichiometry N [1]: 2

B2: Tre2-Bub2-Cdc16-1 domain family member 7 (TBC1D7), human, subunit of the purified TSC complex (natural protein, UniProt Q9P0N9 1-293, looked up)
chain: MTEDSQRNFRSVYYEKVGFRGVEEKKSLEILLKDDRLDTEKLCTFSQRFPLPSMYRALVWKVLLGILPPHHESHAKVMMYRKEQYLDVLHALKVVRFVSDATPQAEVYLRMYQLESGKLPRSPSFPLEPDDEVFLAIAKAMEEMVEDSVDCYWITRRFVNQLNTKYRDSLPQLPKAFEQYLNLEDGRLLTHLRMCSAAPKLPYDLWFKRCFAGCLPESSLQRVWDKVVSGSCKILVFVAVEILLTFKIKVMALNSAEKITKFLENIPQDSSDAIVSKAIDLWHKHCGTPVHSS
notes: TBC1D7, human; ORF sub-cloned into a modified pCAG vector; residues 21-287 traced; One copy stands in the TSC complex (2:2:1); The sample for cryo-EM was cross-linked with glutaraldehyde (Grafix)
binding result [2]: binds

Binder: B3
binding result [3]: binds
